From doi:10.1101/177840

Target: His-tagged full-length Ajuba (UniProt Q96IF1)
Assay: pull-down

Sequence of RPA70-OB½ABC, aa 234-612 (P27694 234-612): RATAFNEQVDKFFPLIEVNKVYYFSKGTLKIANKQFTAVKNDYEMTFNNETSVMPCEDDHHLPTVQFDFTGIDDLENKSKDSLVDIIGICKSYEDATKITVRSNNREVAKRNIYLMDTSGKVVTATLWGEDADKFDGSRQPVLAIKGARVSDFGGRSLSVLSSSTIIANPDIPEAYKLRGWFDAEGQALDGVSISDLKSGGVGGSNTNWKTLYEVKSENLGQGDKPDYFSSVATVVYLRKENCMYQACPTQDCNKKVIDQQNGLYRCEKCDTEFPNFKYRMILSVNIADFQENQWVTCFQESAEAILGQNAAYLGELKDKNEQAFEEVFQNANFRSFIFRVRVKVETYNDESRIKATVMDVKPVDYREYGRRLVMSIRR

pull down relative to full-length RPA70 (100%): 58.7%
Substance: RPA70-OB½ABC, aa 234-612 (from UniProt P27694 234-612) (domain or fragment)
